# In PMC6171537 (Biochemistry and Biophysics Reports, 2018):
# B1: LOV-HK (blue light-activated histidine kinase from Brucella abortus), construct 15-489 (enzyme)
# chain: MALSQATDPFRAAVEFTLMPMLITNPHLPDNPIVFANPAFLKLTGYEADEVMGRNCRFLQGHGTDPAHVRAIKSAIAAEKPIDIDIINYKKSGEAFWNRLHISPVHNANGRLQHFVSSQLDVTLELSRLVELEKERKTLSIETARSKDQLDYIVEVANIGFWTREFYSGKMTCSAECRRIYGFTPDEPVHFDTILDLVVLEDRMTVVQKAHQAVTGEPYSIEYRIVTRLGETRWLETRAKALTGENPLVLGIVQDVTERKKAEANKALVSREIAHRFKNSMAMVQSIANQTLRNTYDPEQANRLFSERLRALSQAHDMLLKENWAGATIQQICATALAPFNSTFANRIHMSGPHLLVSDRVTVALSLAFYELATNAVKYGALSNEKGVINITWAIMEDKGEKKFHMRWAESRGPEVMQPARRGFGQRLLHSVLAEELKAKCDVEFAASGLLIDVLAPITPEVFPGMGHNVPEQRIA
# notes: also called pET-24a-LOVHK-15-489
# Target: the molecule itself
# Experiment: SEC-MALS
protein,measurement,value
B1,stoichiometry N,2
